Source: patent US20250355002A1

Target: recombinant cryptic HDGFL2 with C-terminal glycine serine linker and 6-HisTag (human) (UniProt Q7Z4V5)
Experiment: MSD sandwich ELISA on HeLa overexpression lysates; mouse IgG isotype control in place of the capture antibody

Sequence of UniProt Q7Z4V5 (Q7Z4V5 other isoform, or with tags, fused parts or gaps limits assumed): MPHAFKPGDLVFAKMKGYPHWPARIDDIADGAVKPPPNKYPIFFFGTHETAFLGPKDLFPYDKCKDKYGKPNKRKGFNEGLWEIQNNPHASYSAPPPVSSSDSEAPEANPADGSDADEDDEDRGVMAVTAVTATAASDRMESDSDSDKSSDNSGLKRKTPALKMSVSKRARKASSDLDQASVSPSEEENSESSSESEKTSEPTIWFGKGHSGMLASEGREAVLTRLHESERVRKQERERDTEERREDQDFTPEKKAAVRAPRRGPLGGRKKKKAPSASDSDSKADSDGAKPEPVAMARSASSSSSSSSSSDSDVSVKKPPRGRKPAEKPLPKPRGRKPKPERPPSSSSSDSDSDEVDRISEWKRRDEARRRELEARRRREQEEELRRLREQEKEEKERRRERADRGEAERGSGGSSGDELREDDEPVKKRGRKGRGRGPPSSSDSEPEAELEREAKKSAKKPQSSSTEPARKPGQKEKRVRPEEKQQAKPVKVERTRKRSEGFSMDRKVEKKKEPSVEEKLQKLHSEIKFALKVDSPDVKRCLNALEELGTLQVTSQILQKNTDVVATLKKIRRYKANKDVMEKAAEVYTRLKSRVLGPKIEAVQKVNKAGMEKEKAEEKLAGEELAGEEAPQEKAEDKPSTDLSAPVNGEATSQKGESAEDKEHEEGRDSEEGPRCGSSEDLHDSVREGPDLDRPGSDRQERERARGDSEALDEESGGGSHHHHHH

ratio of cryptic/WT HDGFL2 lysate MSD signal: 1
Substance: mouse IgG isotype control (for the capture antibody)
